Reference: patent publication EP4259652B1

Molecular target: monoclonal antibody NBH133A1-2B4
Assay: competitive ELISA: standard peptide competes with coated …-K-Biotin for HRP-labelled antibody

## NLLNLNKDKE [standard peptide …]
  IC50: 0.0117 µg/mL
